Molecular target: soluble manganese peroxidase (MnP) from Irpex lacteus F17 (Irpex lacteus F17)
Experiment: SEC + other: dynamic light scattering; soluble MnP after Ni-NTA; HiLoad 16/60 Superdex 200 in 20 mM Tris-HCl pH 8.0, 200 mM NaCl; SEC peak II, DLS at room temperature at 0.1 mg/ml in the same buffer

Substance “soluble manganese peroxidase (MnP) from Irpex lacteus F17 (enzyme)” has a stoichiometry N of 2.
